± gives the uncertainty stated by the source.

Sequences and labels used below:
B1: Zinc finger MYM-type protein 2, residues 463 to 506; numbered along this chain, Q9UBW7 (parent)
chain: IMNCCEQCGEYLPSKGAGNNVLVIDGQQKRFCCQSCVSEYKQVG

In this data set the parent is B1. Description: abundance fitness (aPCA) (normalised: wild type 0, dead -1); higher = more abundant; growth selection in yeast, the domain comes from the species named. The conditions noted are these: Homo sapiens.
Consider IMNCCEQCGEYLPSKGAGNNVLVIDGQQKRFCCQSCVSEYKQDG, for which the abundance fitness is -0.123 ± 0.34.
On to IMNCCEQCGEYLPSKGAGNNVLVIDGQQKRFCCQSCVSEYKQHG, for which the abundance fitness is -0.361 ± 0.34.
In the case of IMNCCEQCGEYLPSKGAGNNVLVIDGQQKRFCCQSCVSEYKQWG it was -0.296 ± 0.16; in that of IMNCCEQCGEYLPSKGAGNNVLVIDGQQKRFCCQSCVSEYKQSG, -0.159 ± 0.16; in that of IMNCCEQCGEYLPSKGAGNNVLVIDGQQKRFCCQSCVSEYKQTG, -0.026 ± 0.13.
To IMNCCEQCGEYLPSKGAGNNVLVIDGQQKRFCCQSCVSEYKQMG belongs -0.218 ± 0.14.
In the case of IMNCCEQCGEYLPSKGAGNNVLVIDGQQKRFCCQSCVSEYKQEG it was -0.067 ± 0.091.
Take IMNCCEQCGEYLPSKGAGNNVLVIDGQQKRFCCQSCVSEYKQRG: the abundance fitness was -0.039 ± 0.1.
To IMNCCEQCGEYLPSKGAGNNVLVIDGQQKRFCCQSCVSEYKQGG belongs 0.039 ± 0.091; to IMNCCEQCGEYLPSKGAGNNVLVIDGQQKRFCCQSCVSEYKQPG, 0.144 ± 0.22; to IMNCCEQCGEYLPSKGAGNNVLVIDGQQKRFCCQSCVSEYKQAG, 0.001 ± 0.084.
In the case of IMNCCEQCGEYLPSKGAGNNVLVIDGQQKRFCCQSCVSEYKQLG, the abundance fitness is -0.222 ± 0.15.
IMNCCEQCGEYLPSKGAGNNVLVIDGQQKRFCCQSCVSEYKQQG: the abundance fitness is -0.055 ± 0.12.
Turning to IMNCCEQCGEYLPSKGAGNNVLVIDGQQKRFCCQSCVSEYKWVG, the abundance fitness is -0.398 ± 0.14.
Take IMNCCEQCGEYLPSKGAGNNVLVIDGQQKRFCCQSCVSEYKMVG: the abundance fitness was -0.119 ± 0.17.
In the case of IMNCCEQCGEYLPSKGAGNNVLVIDGQQKRFCCQSCVSEYKSVG it was -0.023 ± 0.13; in that of IMNCCEQCGEYLPSKGAGNNVLVIDGQQKRFCCQSCVSEYKTVG, 0.002 ± 0.11; in that of IMNCCEQCGEYLPSKGAGNNVLVIDGQQKRFCCQSCVSEYKRVG, 0.063 ± 0.072.
Turning to IMNCCEQCGEYLPSKGAGNNVLVIDGQQKRFCCQSCVSEYKVVG, the abundance fitness is 0.151 ± 0.087.
With IMNCCEQCGEYLPSKGAGNNVLVIDGQQKRFCCQSCVSEYKPVG, the abundance fitness is -0.169 ± 0.22.
In the case of IMNCCEQCGEYLPSKGAGNNVLVIDGQQKRFCCQSCVSEYKNVG it was 0.438 ± 0.38.
Regarding IMNCCEQCGEYLPSKGAGNNVLVIDGQQKRFCCQSCVSEYKLVG, the abundance fitness is -0.101 ± 0.11.
In the case of IMNCCEQCGEYLPSKGAGNNVLVIDGQQKRFCCQSCVSEYKQVT it was -0.118 ± 0.096.
As to IMNCCEQCGEYLPSKGAGNNVLVIDGQQKRFCCQSCVSEYKQVE, the abundance fitness was -0.172 ± 0.15.
On to IMNCCEQCGEYLPSKGAGNNVLVIDGQQKRFCCQSCVSEYKQVW, for which the abundance fitness was -0.189 ± 0.088.
Take IMNCCEQCGEYLPSKGAGNNVLVIDGQQKRFCCQSCVSEYKQVL: the abundance fitness is -0.262 ± 0.17.
IMNCCEQCGEYLPSKGAGNNVLVIDGQQKRFCCQSCVSEYKQVC: the abundance fitness was -0.157 ± 0.11.
In the case of IMNCCEQCGEYLPSKGAGNNVLVIDGQQKRFCCQSCVSEYKQVP it was -0.217 ± 0.4; in that of IMNCCEQCGEYLPSKGAGNNVLVIDGQQKRFCCQSCVSEYKQVQ, -0.471 ± 0.37; in that of IMNCCEQCGEYLPSKGAGNNVLVIDGQQKRFCCQSCVSEYKQVR, -0.058 ± 0.094.
On to IMNCCEQCGEYLPSKGAGNNVLVIDGQQKRFCCQSCVSEYKQVV, for which the abundance fitness is -0.144 ± 0.11.

Source of the values: the Human Domainome abundance scans (Beltran et al. 2025).
